In test [1] the target is human PD-1 on primary human T cells (human) (UniProt Q15116). The test is described as follows: cell-based or functional assay.
In test [2] the target is T1, human PD-1 (hPD-1) monomer (human, UniProt Q15116 25-167).
T1 construct: also called hu-PD-1; not shown: His tag (His-tagged monomer)
The test is described as follows: SPR, human PD-1, 25 C.

Test [3] has as its target T1, human PD-1 (hPD-1) monomer. The test is described as follows: SPR (ProteOn), hPD-1 monomer over amine-coupled IgG, 25 C. How it is done:
All interaction analysis was performed on label-free biosensors at 25° C. unless stated otherwise. Surface plasmon resonance biosensors (ProteOn-XPR™ from BioRad™, and Biacore 2000™ and Biacore T200™ from GE Life Sciences) were used to study human and cynomolgus monkey PD-1 and a biolayer interferometry biosensor (Octet-Red384, Fortebio/Pall Life Sciences) was used to study mouse PD-1. ProteOn experiments were performed in PBS pH 7.4+0.01% Tween-20 (PBST) running buffer. Biacore experiments were performed in 10 mM Hepes pH 7.4, 150 mM NaCl, 0.05% Tween-20 (HBST+) and Octet experiments were performed in HBST+ with 1 g/l BSA. The ProteOn data were processed in the ProteOn Manager software, the Biacore data were processed in Biaevaluation, and the Octet data were simply aligned to zero in the control software.
(§1) The surfaces for these experiments were prepared in three steps; (1) the ligand channels were minimally activated for two min using a freshly prepared mixture of the activation reagents at final 0.8 mM EDC and 0.2 mM sulfo-NHS in water, (2) the IgGs were coupled for three min at 15 μg/ml in 10 mM sodium acetate pH 4.5, and (3) excess reactive esters were blocked for three min with 1 M ethanolamine HCl pH 8.5. […] Association and dissociation times were 3 min and 20 min, respectively and all analytes were injected in duplicate binding cycles. Surfaces were regenerated with a cocktail of 2:1 v/v Pierce IgG elution buffer (pH 2.8):4 M NaCl.

Test [4] concerns the target T1, human PD-1 (hPD-1) monomer. The test is described as follows: SPR (ProteOn), hPD-1 monomer over amine-coupled IgG, 25 C; 5% rule. How it is done: as §1
N=2 refers to two independent experiments on different chips.

Bounds are passed on as bounds.

T1 sequence (Q15116 25-167 limits assumed): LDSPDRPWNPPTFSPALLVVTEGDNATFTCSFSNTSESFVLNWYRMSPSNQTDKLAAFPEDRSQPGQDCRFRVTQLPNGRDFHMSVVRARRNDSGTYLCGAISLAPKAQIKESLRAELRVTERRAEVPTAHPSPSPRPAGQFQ
Chain of human PD-1 on primary human T cells (human) (Q15116 25-288 limits assumed): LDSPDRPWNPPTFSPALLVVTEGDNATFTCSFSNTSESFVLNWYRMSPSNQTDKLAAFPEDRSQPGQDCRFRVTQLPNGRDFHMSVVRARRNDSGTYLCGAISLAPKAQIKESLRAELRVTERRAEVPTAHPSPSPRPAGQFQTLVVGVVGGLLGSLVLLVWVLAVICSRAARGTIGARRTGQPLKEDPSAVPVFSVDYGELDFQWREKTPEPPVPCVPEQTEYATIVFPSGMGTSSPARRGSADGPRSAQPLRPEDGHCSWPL

In test [1], “EH12.1 (BD Biosciences mouse anti human anti-PD-1 antibody, mouse isotype IgG1 Kappa)” had an IFNγ (pg/ml), MLR day 5, antibody 0.0001 µg/ml of 1700 pg/mL; an IFNγ (pg/ml), MLR day 5, antibody 0.001 µg/ml of 2280 pg/mL; an IFNγ (pg/ml), MLR day 5, antibody 0.01 µg/ml of 4380 pg/mL; an IFNγ (pg/ml), MLR day 5, antibody 0.1 µg/ml of 4730 pg/mL. In test [1], this molecule showed an IFNγ (pg/ml), MLR day 5, antibody 1 µg/ml of 9910 pg/mL; an IFNγ (pg/ml), MLR day 5, antibody 10 µg/ml of 15100 pg/mL; a TNF (pg/ml), MLR day 5, antibody 0.0001 µg/ml of 753 pg/mL; a TNF (pg/ml), MLR day 5, antibody 0.001 µg/ml of 687 pg/mL. In test [1], this molecule yielded a TNF (pg/ml), MLR day 5, antibody 0.01 µg/ml of 859 pg/mL; a TNF (pg/ml), MLR day 5, antibody 0.1 µg/ml of 745 pg/mL; a TNF (pg/ml), MLR day 5, antibody 1 µg/ml of 979 pg/mL; a TNF (pg/ml), MLR day 5, antibody 10 µg/ml of 1950 pg/mL.

B1: mAb2 (antibody, V domains shown)
VH: QVQLVQSGAEVKKPGASVKVSCKASGYTFTSYWINWVRQAPGQGLEWMGNIYPGSSLTNYNEKFKNRVTMTRDTSTSTVYMELSSLRSEDTAVYYCARLLTGTFAYWGQGTLVTVSS
VL: DIVMTQSPDSLAVSLGERATINCKSSQSLWDSGNQKNFLTWYQQKPGQPPKLLIYWTSYRESGVPDRFSGSGSGTDFTLTISSLQAEDVAVYYCQNDYFYPLTFGGGTKVEIK
notes: Variable regions only
For orientation: Kd means the free concentration of one partner at which half of the binding sites on the other are occupied at equilibrium, for simple one-to-one binding. Read a high Kd as a looser complex. The molecule B1 returned a dissociation constant Kd in test [2] of 2.22 nM.

B2: mAb11 (antibody, V domains shown)
VH: QVQLVQSGAEVKKPGASVKVSCKASGYTFTSYWINWVRQAPGQGLEWMGNIYPGSSITNYNEKFKNRVTMTRDTSTSTVYMELSSLRSEDTAVYYCARLTTGTFAYWGQGTLVTVSS
VL: DIVMTQSPDSLAVSLGERATINCKSSQSLWDSGNQKNFLTWYQQKPGQPPKLLIYWTSYRESGVPDRFSGSGSGTDFTLTISSLQAEDVAVYYCQNDYFYPHTFGGGTKVEIK
notes: Variable regions only
B2 registered a Kd in test [2] of 0.93 nM.

B3: mAb12 (antibody, V domains shown)
VH: QVQLVQSGAEVKKPGASVKVSCKASGYTFTSYWINWVRQAPGQGLEWMGNIYPGSSITNYNEKFKNRVTMTRDTSTSTVYMELSSLRSEDTAVYYCARLTTGTFAYWGQGTLVTVSS
VL: DIVMTQSPDSLAVSLGERATINCKSSQSLWDSTNQKNFLTWYQQKPGQPPKLLIYWTSTRESGVPDRFSGSGSGTDFTLTISSLQAEDVAVYYCQNDYFYPLTFGGGTKVEIK
notes: Variable regions only
In test [2], B3 yielded a dissociation constant (Kd) of 17.3 nM.

B4: mAb14 (antibody, V domains shown)
VH: QVQLVQSGAEVKKPGASVKVSCKASGYTFTSYWINWVRQAPGQGLEWMGNIWPGSSLTNYNEKFKNRVTMTRDTSTSTVYMELSSLRSEDTAVYYCARLLTGTFAYWGQGTLVTVSS
VL: DIVMTQSPDSLAVSLGERATINCKSSQSLWDSGNQKNFLTWYQQKPGQPPKLLIYWTSYRESGVPDRFSGSGSGTDFTLTISSLQAEDVAVYYCQNDYFYPLTFGGGTKVEIK
notes: Variable regions only
Turning to B4, in test [2], the equilibrium dissociation constant (Kd) worked out at 0.6 nM.

B5: mAb16 (antibody, V domains shown)
VH: QVQLVQSGAEVKKPGASVKVSCKASGYTFTSYWINWVRQAPGQGLEWMGNIWPGSSLTNYNEKFKNRVTMTRDTSTSTVYMELSSLRSEDTAVYYCARLLTGTFAYWGQGTLVTVSS
VL: DIVMTQSPDSLAVSLGERATINCKSSQSLWDSTNQKNFLTWYQQKPGQPPKLLIYWTSTRESGVPDRFSGSGSGTDFTLTISSLQAEDVAVYYCQNDYFYPLTFGGGTKVEIK
notes: Variable regions only
As for B5, the Kd in test [2] stood at 7.51 nM.

B6: mAb10 (antibody, V domains shown)
VH: QVQLVQSGAEVKKPGASVKVSCKASGYTFTSYWINWVRQAPGQGLEWMGNIYPGSSITNYNEKFKNRVTMTRDTSTSTVYMELSSLRSEDTAVYYCARLTTGTFAYWGQGTLVTVSS
VL: DIVMTQSPDSLAVSLGERATINCKSSQSLWDSGNQKNFLTWYQQKPGQPPKLLIYWTSYRESGVPDRFSGSGSGTDFTLTISSLQAEDVAVYYCQNDYFYPLTFGGGTKVEIK
notes: Variable regions only
Turning to B6, the Kd in test [2] is 0.98 nM.

B7: mAb5 (antibody, V domains shown)
VH: QVQLVQSGAEVKKPGASVKVSCKASGYTFTSYWINWVRQAPGQGLEWMGNIYPGSSLTNYNEKFKNRVTMTRDTSTSTVYMELSSLRSEDTAVYYCARLSTGTFAYWGQGTLVTVSS
VL: DIVMTQSPDSLAVSLGERATINCKSSQSLWDSGNQKNFLTWYQQKPGQPPKLLIYWTSTRESGVPDRFSGSGSGTDFTLTISSLQAEDVAVYYCQNDYFYPLTFGGGTKVEIK
notes: Variable regions only
In test [2], B7 had a dissociation constant (Kd) of 12.8 nM.

B8: mAb15 IgG1 AAA (antibody, V domains shown)
VH: QVQLVQSGAEVKKPGASVKVSCKASGYTFTSYWINWVRQAPGQGLEWMGNIWPGSSLTNYNEKFKNRVTMTRDTSTSTVYMELSSLRSEDTAVYYCARLLTGTFAYWGQGTLVTVSS
VL: DIVMTQSPDSLAVSLGERATINCKSSQSLWDSGNQKNFLTWYQQKPGQPPKLLIYWTSYRESGVPDRFSGSGSGTDFTLTISSLQAEDVAVYYCQNDYFYPHTFGGGTKVEIK
notes: also called mAb15-AAA
Broadly, the kon is the rate constant with which the complex forms. A high value points to faster complex formation. In general, koff refers to the rate constant with which the complex falls apart. Lower therefore signals a long-lived complex. For B8, in test [3], the Kd was below 0.053 nM and the kon amounted to 813000 M⁻¹ s⁻¹. For the same molecule, in test [4], the dissociation rate constant (koff) is below 4.3e-05 s⁻¹.

B9: mAb8 (antibody, V domains shown)
VH: QVQLVQSGAEVKKPGASVKVSCKASGYTFTSYWINWVRQAPGQGLEWMGNIYPGSSLTNYNEKFKNRVTMTRDTSTSTVYMELSSLRSEDTAVYYCARLSTGTFAYWGQGTLVTVSS
VL: DIVMTQSPDSLAVSLGERATINCKSSQSLWDSTNQKNFLTWYQQKPGQPPKLLIYWTSTRESGVPDRFSGSGSGTDFTLTISSLQAEDVAVYYCQNDYFYPLTFGGGTKVEIK
notes: Variable regions only
B9 had a Kd in test [2] of 17.4 nM.

B10: mAb6 (antibody, V domains shown)
VH: QVQLVQSGAEVKKPGASVKVSCKASGYTFTSYWINWVRQAPGQGLEWMGNIYPGSSLTNYNEKFKNRVTMTRDTSTSTVYMELSSLRSEDTAVYYCARLSTGTFAYWGQGTLVTVSS
VL: DIVMTQSPDSLAVSLGERATINCKSSQSLWDSGNQKNFLTWYQQKPGQPPKLLIYWTSYRESGVPDRFSGSGSGTDFTLTISSLQAEDVAVYYCQNDYFYPLTFGGGTKVEIK
notes: Variable regions only
B10: the dissociation constant Kd in test [2] is 1.16 nM.

B11: mAb1 (antibody, V domains shown)
VH: QVQLVQSGAEVKKPGASVKVSCKASGYTFTSYWINWVRQAPGQGLEWMGNIYPGSSLTNYNEKFKNRVTMTRDTSTSTVYMELSSLRSEDTAVYYCARLLTGTFAYWGQGTLVTVSS
VL: DIVMTQSPDSLAVSLGERATINCKSSQSLWDSGNQKNFLTWYQQKPGQPPKLLIYWTSTRESGVPDRFSGSGSGTDFTLTISSLQAEDVAVYYCQNDYFYPLTFGGGTKVEIK
notes: Variable regions only
In test [2], B11 returned a dissociation constant Kd of 64.2 nM.

B12: mAb3 (antibody, V domains shown)
VH: QVQLVQSGAEVKKPGASVKVSCKASGYTFTSYWINWVRQAPGQGLEWMGNIYPGSSLTNYNEKFKNRVTMTRDTSTSTVYMELSSLRSEDTAVYYCARLLTGTFAYWGQGTLVTVSS
VL: DIVMTQSPDSLAVSLGERATINCKSSQSLWDSGNQKNFLTWYQQKPGQPPKLLIYWTSYRESGVPDRFSGSGSGTDFTLTISSLQAEDVAVYYCQNDYFYPHTFGGGTKVEIK
notes: Variable regions only
B12 registered a Kd in test [2] of 1.43 nM.

B13: mAb13 (antibody, V domains shown)
VH: QVQLVQSGAEVKKPGASVKVSCKASGYTFTSYWINWVRQAPGQGLEWMGNIWPGSSLTNYNEKFKNRVTMTRDTSTSTVYMELSSLRSEDTAVYYCARLLTGTFAYWGQGTLVTVSS
VL: DIVMTQSPDSLAVSLGERATINCKSSQSLWDSGNQKNFLTWYQQKPGQPPKLLIYWTSTRESGVPDRFSGSGSGTDFTLTISSLQAEDVAVYYCQNDYFYPLTFGGGTKVEIK
notes: Variable regions only
Take B13: the equilibrium dissociation constant (Kd) in test [2] was found to be 5.87 nM.

B14: mAb7 IgG1 AAA (antibody, V domains shown)
VH: QVQLVQSGAEVKKPGASVKVSCKASGYTFTSYWINWVRQAPGQGLEWMGNIYPGSSLTNYNEKFKNRVTMTRDTSTSTVYMELSSLRSEDTAVYYCARLSTGTFAYWGQGTLVTVSS
VL: DIVMTQSPDSLAVSLGERATINCKSSQSLWDSGNQKNFLTWYQQKPGQPPKLLIYWTSYRESGVPDRFSGSGSGTDFTLTISSLQAEDVAVYYCQNDYFYPHTFGGGTKVEIK
notes: also called mAb7-AAA
Consider B14, for which, in test [3], the Kd was below 0.086 nM and the on-rate constant (kon) is 497000 M⁻¹ s⁻¹. This molecule came in with a koff in test [4] below 4.3e-05 s⁻¹.

B15: mAb9 (antibody, V domains shown)
VH: QVQLVQSGAEVKKPGASVKVSCKASGYTFTSYWINWVRQAPGQGLEWMGNIYPGSSITNYNEKFKNRVTMTRDTSTSTVYMELSSLRSEDTAVYYCARLTTGTFAYWGQGTLVTVSS
VL: DIVMTQSPDSLAVSLGERATINCKSSQSLWDSGNQKNFLTWYQQKPGQPPKLLIYWTSTRESGVPDRFSGSGSGTDFTLTISSLQAEDVAVYYCQNDYFYPLTFGGGTKVEIK
notes: Variable regions only
B15: in test [2], the dissociation constant Kd was 13.5 nM.

Values taken from patent US20190083612A1 (RINAT NEUROSCIENCE, published 2019).
